Changes are numbered by the printed parent chain. In names and notes the source's numbering stands.
How the values were obtained:
[1] = target: T1, TCPTP (full-length TCPTP, residues 1-387, TC45 isoform) (human, UniProt P17706-2 1-387); assay: cell-based or functional assay
T1 sequence (looked up): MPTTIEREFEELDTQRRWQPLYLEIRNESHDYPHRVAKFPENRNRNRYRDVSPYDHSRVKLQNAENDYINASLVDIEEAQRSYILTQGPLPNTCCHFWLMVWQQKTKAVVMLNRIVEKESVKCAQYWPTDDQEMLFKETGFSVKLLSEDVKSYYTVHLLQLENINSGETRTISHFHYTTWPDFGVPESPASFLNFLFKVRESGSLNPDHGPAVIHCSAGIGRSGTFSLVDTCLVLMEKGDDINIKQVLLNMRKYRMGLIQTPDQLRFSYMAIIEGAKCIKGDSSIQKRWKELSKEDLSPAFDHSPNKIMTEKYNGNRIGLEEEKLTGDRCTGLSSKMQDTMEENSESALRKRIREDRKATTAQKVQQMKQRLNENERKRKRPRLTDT

[2] = target: T2, TCPTPCAT (TCPTP catalytic domain, residues 1-302) (human, UniProt P17706-2 1-302); assay: NMR titration; 15N-labelled tail observed (2D [1H,15N] HSQC, 0.1 mM), unlabelled TCPTPCAT added in increasing amounts (1:0 to 1:20 tail:CAT); NMR buffer 20 mM HEPES pH 6.8, 150 mM NaCl, 0.5 mM TCEP, 90% H2O/10% D2O; 298 K or 283 K; conditions: both partners purified
T2 construct: T cell protein tyrosine phosphatase (TCPTP, PTPN2), human, TC45 isoform, catalytic domain residues 1-302, sub-cloned into pRP1B for all NMR experiments; (2H,15N)-labelled where it was the observed species, unlabelled where it was titrated into the labelled tail; also called T-Cell Protein Tyrosine Phosphatase catalytic domain; PTPN2 catalytic domain; source: E. coli BL21 (DE3) RIL, purified …
T2 sequence (looked up): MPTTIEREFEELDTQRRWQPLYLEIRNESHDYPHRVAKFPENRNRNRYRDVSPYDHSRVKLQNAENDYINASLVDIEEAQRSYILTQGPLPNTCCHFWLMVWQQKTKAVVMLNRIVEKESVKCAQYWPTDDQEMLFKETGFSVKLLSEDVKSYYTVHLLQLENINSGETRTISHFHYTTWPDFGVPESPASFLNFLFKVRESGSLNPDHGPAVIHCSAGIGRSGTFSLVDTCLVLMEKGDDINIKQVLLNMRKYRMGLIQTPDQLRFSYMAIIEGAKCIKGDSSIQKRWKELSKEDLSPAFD

[3] = test system: pEGFR peptide-2, derived from the EGFR's kinase domain activation loop; assay: Phosphatase kinetic analysis (Michaelis-Menten) of TCPTP constructs, pEGFR peptide-2 substrate; type: biochemical; conditions: mean ± SE, n = 9
Experimental: (§1) The rate of dephosphorylation of TCPTP and TCPTPCAT (residue 1–314) against 2 phosphotyrosine peptides derived from EGFR was monitored either with or without ITGA1 peptide (ITGA1_FCT & ITGA1_TR) in assay buffer (25 mM Hepes pH 7.4, 50 mM NaCl and 1 mM DTT). Lyophilized powder of all synthetic peptides was dissolved in assay buffer without DTT (phosphopeptides, 5 mM; ITGA1 peptides, 2 mM). For the kinetic analysis, the concentration of the enzyme was fixed at 1 nM while the substrate (phosphopeptides) concentration was varied from 2.5 μM to 160 μM in a total reaction volume of 200 μl. Effect of ITGA1 peptide on TCPTP & TCPTPCAT kinetics were assessed in saturated condition by adding an excess amount of ITGA1 peptide to the reaction mixture (ITGA1_TR = 1 μM; ITGA1_FCT = 25 μM). The reaction was incubated at 30 °C for 30 min and stopped by the addition of 30 μl phosphate reagent (phosphate colorimetric assay kit; Bio Vision) following the manufacturer’s instructions. Data were normalized and fitted using a nonlinear curve, and kinetics parameters (KM and kcat) were calculated from the Michaelis-Menten equation using Graph Pad Prism 9.0. All data points in the enzyme kinetics experiment were measured in triplicate, and the experiments were repeated three times.
Supplementary Table 2: Enzymatic activity assay (Michaelis-Menten analysis); substrate pEGFR peptide-2, derived from the EGFR’s kinase domain activation loop. Calculated kinetic parameter are presented as the mean of nine independent reactions (n=9; mean ± SE). Source data are provided as a Source Data file. kcat (s-1) Km (µM) kcat/Km (µM -1s-1)

[4] = test system: pEGFR peptide-1, derived from the cytoplasmic tail of EGFR; assay: Phosphatase kinetic analysis (Michaelis-Menten) of TCPTP constructs, pEGFR peptide-1 substrate; type: biochemical; conditions: mean ± SE, n = 9 (TCPTPCAT, TCPTP) or 12 (TCPTPC-term, TCPTPL1)
Experimental: as §1

[5] = DiFMUP assay of TCPTP, TCPTPCAT, PTP1B and PTP1BCAT; type: biochemical; conditions: PTP1B (1–400) vs PTP1BCAT (1–321), DiFMUP, n = 6
Experimental: Activity of TCPTP, TCPTPCAT (residue 1–314) either with or without ITGA1 peptides (ITGA1_TR; 1:50 molar ratio, ITGA1_FCT; 1:1000 molar ratio), PTP1B (residue 1–400) and PTP1BCAT (residue 1–321) were assessed in assay buffer (25 mM Hepes pH 7.4, 50 mM NaCl, and 1 mM DTT). The assay was performed in black polystyrene flat bottom 96-well plate. The concentration of DiFMUP was fixed at 10 μM and protein concentration at 2.5 nM in total reaction volume of 100 μl. The emitted fluorescent signal at 455 nm was continuously recorded for 25 min using a Tecan Infinite M1000 pro microplate reader (Tecan i-control, 2.0.10.0).

TCPTPCAT = target: T3, TCPTPCAT (Homo sapiens, UniProt P17706); assay: NMR titration (2D HSQC/TROSY) binding to TCPTPCAT
T3 construct: TCPTP and TCPTPCAT (residue 1–314) against 2 phosphotyrosine peptides derived from EGFR; His6 (N, cleaved yes); made in house; host or cells: E. coli BL21 (DE3) RIL
T3 sequence (P17706 1-314 isoform P17706-2): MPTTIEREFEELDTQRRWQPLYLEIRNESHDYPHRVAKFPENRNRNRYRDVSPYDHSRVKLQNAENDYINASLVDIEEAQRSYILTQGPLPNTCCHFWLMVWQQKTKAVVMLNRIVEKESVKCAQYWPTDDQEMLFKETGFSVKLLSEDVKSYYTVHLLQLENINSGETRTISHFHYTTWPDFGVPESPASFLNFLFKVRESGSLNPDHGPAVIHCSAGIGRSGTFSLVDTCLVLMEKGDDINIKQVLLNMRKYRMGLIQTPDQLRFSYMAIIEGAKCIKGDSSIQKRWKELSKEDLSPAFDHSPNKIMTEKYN
From the text: Polymerase chain reaction (PCR) fragments of TCPTP (residues: 1–387) TCPTPCAT (catalytic domain, residues: 1–288, 1–302 or 1–314), TCPTPTail (C-terminal tail, residues: 289–387 or 303–387) were amplified from full-length human TCPTP (TC45 isoform). TCPTP, TCPTPCAT (residues: 1–288, 1–314), and TCPTPTail (residues: 289–387) fragments were cloned into pMCSG7 including a N-terminal His6-tag using ligation-independent cloning. For all NMR experiments, the PCR fragments of TCPTP, TCPTPCAT (residues: 1–302) and TCPTPTail (residue: 303–387) were sub-cloned into pRP1B as previously described.
NMR data were collected on either Bruker NEO 600 MHz or 800 MHz spectrometers equipped with TCI HCN z-gradient cryoprobes at 298 K or 283 K. NMR measurements of TCPTP’s variant construct were recorded using (^1H,^15N)-, (^2H,^15N)-, (^1H,^15N,^13C), or (^2H,^15N,^13C)-labeled protein at a final concentration of 0.6 mM for backbone assignment or 0.1 mM for titration in NMR buffer and 90% H2O/10% D2O. The sequence-specific backbone assignments of TCPTP (residues 1–387), TCPTPCAT (residues 1–302), TCPTPTail (residues 303–387) and other variants were achieved using 3D triple resonance experiments including […], 3D HNCA, 3D HN(CO)CA, 3D HN(CO)CACB, and 3D HNCACB either as HSQC or TROSY variations. All NMR data were processed using TopSpin 4.0.5[44] and analyzed using either CARA (http://www.cara.nmr.ch) and/or CcpNMR[45].

[6] = pEGFR peptide-2 2.5-160 μM, 1 nM enzyme, pH 7.4, 30 °C 30 min

## KIGFFKRPLKKKMEK [ITGA1_FCT (ITGA1 full cytoplasmic tail)]
[1]
  rate of dephosphorylation (EGFR phosphopeptides, DiFMUP) by TCPTP saturated with excess ITGA1 peptide (ITGA1_FCT 25 μM), against TCPTP alone: ~3 fold

## RPLKKKMEKRPLKKKMEK [ITGA1_TR (ITGA1 tandem repeat; 2x ITGA1_TCT)]
[1]
  rate of dephosphorylation (EGFR phosphopeptides, DiFMUP) by TCPTP saturated with excess ITGA1 peptide (ITGA1_TR 1 μM), against TCPTP alone: ~3 fold

B1: TCPTP_(Tail) (C-terminal tail, residues 303-387) (domain or fragment, human, UniProt P17706-2 303-387, looked up)
chain: HSPNKIMTEKYNGNRIGLEEEKLTGDRCTGLSSKMQDTMEENSESALRKRIREDRKATTAQKVQQMKQRLNENERKRKRPRLTDT
notes: T cell protein tyrosine phosphatase (TCPTP, PTPN2), human, TC45 isoform, C-terminal tail residues 303-387, sub-cloned into pRP1B for all NMR experiments; also called TCPTP C-terminal tail; TCPTP IDR; source: E. coli BL21 (DE3) RIL, purified (His-trap, TEV cleavage, subtraction, heat step 80 °C 10 min, SEC)
[2]
  binding result: binds

B2: TCPTP_(TailRK) (N373R/E374K/N375R/E376K) (domain or fragment, human, UniProt P17706-2 303-387, looked up)
chain: B1 chain with N71R, E72K, N73R, E74K
notes: T cell protein tyrosine phosphatase (TCPTP, PTPN2), human, TC45 isoform, C-terminal tail with 373NENE376 changed to 373RKRK376; 15N-labelled when observed; also called TCPTP_(TaiRK); source: E. coli BL21 (DE3) RIL, purified (His-trap, TEV cleavage, subtraction, heat step 80 °C 10 min, SEC)
[2]
  binding result: binds

B3: TCPTPCAT: TCPTP catalytic domain, residues 1–288, 1–302 (NMR) or 1–314 (activity, SAXS) (protein, UniProt P17706 1-314, looked up, fragment)
chain: T3 sequence (P17706 1-314 isoform P17706-2)
modifications: catalytic domain
[3]; [6]
  Km: 34 ± 2.2 µM
  kcat: 36.3 ± 0.9 s⁻¹
[3]; pEGFR peptide-2
  kcat/Km: 1.1 ± 0.1 µM -1s-1
[4]; pEGFR peptide-1 2.5-160 μM, 1 nM enzyme, 25 mM Hepes pH 7.4, 50 mM NaCl, 1 mM DTT, 30 °C 30 min
  kcat: 34.0 ± 0.9 s⁻¹
[4]; pEGFR peptide-1 2.5-160 μM, 1 nM enzyme, pH 7.4, 30 °C 30 min
  Km: 24.8 ± 2 µM
[4]; pEGFR peptide-1, pH 7.4, 30 °C
  kcat/Km: 1.4e+06 ± 100000 M⁻¹ s⁻¹

B4: PTP1B: PTP1B (residue 1–400) (protein, UniProt P18031 1-400, looked up, fragment)
chain: MEMEKEFEQIDKSGSWAAIYQDIRHEASDFPCRVAKLPKNKNRNRYRDVSPFDHSRIKLHQEDNDYINASLIKMEEAQRSYILTQGPLPNTCGHFWEMVWEQKSRGVVMLNRVMEKGSLKCAQYWPQKEEKEMIFEDTNLKLTLISEDIKSYYTVRQLELENLTTQETREILHFHYTTWPDFGVPESPASFLNFLFKVRESGSLSPEHGPVVVHCSAGIGRSGTFCLADTCLLLMDKRKDPSSVDIKKVLLEMRKFRMGLIQTADQLRFSYLAVIEGAKFIMGDSSVQDQWKELSHEDLEPPPEHIPPPPRPPKRILEPHNGKCREFFPNHQWVKEETQEDKDCPIKEEKGSPLNAAPYGIESMSQDTEVRSRVVGGSLRGAQAASPAKGEPSLPEKDED
[5]
  autoregulatory behavior of the C-terminal tail (activity vs catalytic domain): not observed

B5: TCPTPTailRK: TCPTPTail with N373R/E374K/N375R/E376K (protein)
chain: B1 chain with N71R, E72K, N73R, E74K
modifications: left off: His6, end not stated, cleaved
notes: TCPTPTail with N373R/E374K/N375R/E376K
TCPTPCAT; 2D [1H,15N] HSQC, reduction in peak intensities at lower ratio (1:10)
  NMR titration: interaction strength vs TCPTPTail: tighter interaction
TCPTPCAT; 2D [1H,15N] TROSY, unlabeled ligand added
  NMR titration: CSPs in (2H,15N)-labeled TCPTPCAT: Small, but clear chemical shift perturbations (CSPs) were readily identified

— publication PMC8748766, “The catalytic activity of TCPTP is auto-regulated by its intrinsically disordered tail and activated by Integrin alpha-1” (Nature Communications, 2022)
